# Ends that are not written are not given here.
# T1: human VEGFR3-Fc fusion protein (human, UniProt P35916 25-329, limits assumed)
# T1 construct: domain: first three Ig homology domain of the extracellular portion; Coated on microtiter wells at 1 ug/ml; not shown: Fc tail of human IgG1, cloned in frame after the VEGFR3 Ig homology domains
# T1 sequence (looked up): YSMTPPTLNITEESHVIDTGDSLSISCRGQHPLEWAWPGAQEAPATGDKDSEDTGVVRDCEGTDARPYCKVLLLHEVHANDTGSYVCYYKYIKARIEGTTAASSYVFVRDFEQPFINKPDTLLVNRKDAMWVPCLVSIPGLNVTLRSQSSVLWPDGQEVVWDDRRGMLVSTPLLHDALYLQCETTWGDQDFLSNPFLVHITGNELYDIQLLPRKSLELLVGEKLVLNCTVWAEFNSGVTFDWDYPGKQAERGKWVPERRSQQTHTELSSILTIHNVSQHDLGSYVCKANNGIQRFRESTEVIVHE
# B1: CYGFLWGMC (SEQ ID NO: 60) (peptide)
# peptide: CYGFLWGMC
# modifications: not fully specified (bridges); cysteine pairing not given here; also: displayed on fUSE5 phage as coat protein fusion, flanking residues not given here
# notes: also called CX7C library clone
# Target: T1, human VEGFR3-Fc fusion protein
# Test: phage attachment assay, VEGFR3-Fc-coated versus BSA-blocked microtiter wells
# Procedure: VEGFR3-Fc fusionprotein (1 μg/ml) was coated on microtiter wells (96-well plate) overnight at 4° C. Wells were then saturated with 5% BSA. In the first panning, the libraries were incubated overnight at 4° C. in 50 mM TBS buffer (Tris-HCl/0.1M NaCl, pH 7.5) containing 1% BSA. After extensive washing, the bounded phages were eluted with a low pH buffer (0.1M glycine-HCl, 0.1%BSA, 0.05% phenol red, pH2.2)(Koivunen et al., Methods Mol. Biol. 129:3-17,1999; Koivunenet al, Biotechnol., 18(8):768-74,1999; Smoth et al., Methods Enzymol., 217:228-357, 1993). In subsequent pannings, the amplified phages using the K91kan E. coli.(Koivunen et al., Methods Mol. Biol. 129:3-17, 1999) were allowed to bind for 1 h at room temperature. Randomly selected clones from the fourth round of panning were amplified overnight and sequenced using ABIPRISM 310 Genetic Analyzer. The binding of each clone to VEGFR-3 was verified by an attachment assay, in which the cloned phage were incubated for 60 minutes in VEGFR3-Fc-coated or BSA-blocked microtiter wells. Thewells were washed ten times with TBS containing 0.5% Tween-20. The bound phages were titered by calculating the number of colonies.
row,binding result,Binder
1,binds,CVEVQITQEC (also called CX8C library clone) [CVEVQITQEC (SEQ ID NO: 56)]
2,binds,CRALDSALAC (also called CX8C library clone) [CRALDSALAC (SEQ ID NO: 58)]
3,binds,CYGFEAAWC (also called CX7C library clone) [CYGFEAAWC (SEQ ID NO: 59)]
4,binds,SAVFRGRWL (also called X9 library clone) [SAVFRGRWL (SEQ ID NO: 42)]
5,binds,CWQLGRNWIC (also called CX8C library clone) [CWQLGRNWIC (SEQ ID NO: 55)]
6,binds,KVGWSSPDW (also called X9 library clone) [KVGWSSPDW (SEQ ID NO: 38)]
7,binds,CSRWRILGC (also called CX7C library clone) [CSRWRILGC (SEQ ID NO: 61)]
8,binds,FVGWTKVLG (also called X9 library clone) [FVGWTKVLG (SEQ ID NO: 39)]
9,binds,WFSASLRFR (also called X9 library clone) [WFSASLRFR (SEQ ID NO: 43)]
10,binds,CVWDHGVC [CVWDHGVC (SEQ ID NO: 65)]
11,binds,CHKWQKRQC (also called CX7C library clone) [CHKWQKRQC (SEQ ID NO: 62)]
12,binds,CAGKASSLWC (also called CX8C library clone) [CAGKASSLWC (SEQ ID NO: 57)]
13,binds,CRKVWDIRC (also called CX7C library clone) [CRKVWDIRC (SEQ ID NO: 64)]
14,binds,CMDPWGGWC (also called CX7C library clone) [CMDPWGGWC (SEQ ID NO: 63)]
15,binds,RWRGNAYPG (also called X9 library clone) [RWRGNAYPG (SEQ ID NO: 41)]
16,binds,B1
17,binds,YSSSMRWRH (also called X9 library clone) [YSSSMRWRH (SEQ ID NO: 40)]
18,binds,SCYWRDTWF (also called X9 library clone) [SCYWRDTWF (SEQ ID NO: 37)]
19,binds,CGQMCTVWCSSGC (also called CX3CX3CX3C library clone) [CGQMCTVWCSSGC (SEQ ID NO: 66)]
20,binds,SGYWWDTWF (also called X9 library clone) [SGYWWDTWF (SEQ ID NO: 36)]

# From patent US20020164667A1 (VEGENICS, published 2002)
